Test system: Escherichia coli TOP10
Assay: shrunken log2 fold change of peptide-encoding DNA abundance (4.5 h post-induction vs induction); higher = less antimicrobial activity (less host growth inhibition)
Settings: time post-induction: 4.5 h; library: site-saturation at positions 5, 18, 19, 20
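Also: peptides expressed intracellularly from a pBAD plasmid library in pooled LB shake-flask culture, induced with 0.3% L-arabinose, DNA abundance read by NGS, three biological replicates, DESeq2 with apeglm shrinkage.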

RRIRHRPPRLPRPRPRPWVAPRP
shrunken log2 fold change: -0.0296

RRIRHRPPRLPRPRPRPWVFPRP
shrunken log2 fold change: 0.139

RRIRHRPPRLPRPRPRPWYHPRP
shrunken log2 fold change: -1.53

RRIRHRPPRLPRPRPRPWYVPRP
shrunken log2 fold change: 0.00296

RRIRHRPPRLPRPRPRPYACPRP
shrunken log2 fold change: -0.225

RRIRHRPPRLPRPRPRPYALPRP
shrunken log2 fold change: -0.078

RRIRHRPPRLPRPRPRPYCKPRP
shrunken log2 fold change: -1.02

RRIRHRPPRLPRPRPRPYCYPRP
shrunken log2 fold change: -0.577

RRIRHRPPRLPRPRPRPYEHPRP
shrunken log2 fold change: -1.01

RRIRHRPPRLPRPRPRPYFKPRP
shrunken log2 fold change: -1.03

RRIRHRPPRLPRPRPRPYFPPRP
shrunken log2 fold change: -1.43

RRIRHRPPRLPRPRPRPYGCPRP
shrunken log2 fold change: -0.118

RRIRHRPPRLPRPRPRPYHYPRP
shrunken log2 fold change: -0.125

RRIRHRPPRLPRPRPRPYIDPRP
shrunken log2 fold change: -0.0149

RRIRHRPPRLPRPRPRPYLDPRP
shrunken log2 fold change: 0.00552

RRIRHRPPRLPRPRPRPYLLPRP
shrunken log2 fold change: -0.611

RRIRHRPPRLPRPRPRPYLRPRP
shrunken log2 fold change: -0.173

RRIRHRPPRLPRPRPRPYMFPRP
shrunken log2 fold change: -0.319

RRIRHRPPRLPRPRPRPYMYPRP
shrunken log2 fold change: -1.14

RRIRHRPPRLPRPRPRPYNGPRP
shrunken log2 fold change: -0.835

RRIRHRPPRLPRPRPRPYNKPRP
shrunken log2 fold change: -0.681

RRIRHRPPRLPRPRPRPYSAPRP
shrunken log2 fold change: 0.0254

RRIRHRPPRLPRPRPRPYWAPRP
shrunken log2 fold change: -0.186

RRIRHRPPRLPRPRPRPYWVPRP
shrunken log2 fold change: -0.26

RRIRHRPPRLPRPRPRPYYIPRP
shrunken log2 fold change: 0.0121

RRIRIRPPRLPRPRPRPAAQPRP
shrunken log2 fold change: 0.14

RRIRIRPPRLPRPRPRPACMPRP
shrunken log2 fold change: -0.0966

RRIRIRPPRLPRPRPRPAGTPRP
shrunken log2 fold change: -0.108

RRIRIRPPRLPRPRPRPAGWPRP
shrunken log2 fold change: 0.582

RRIRIRPPRLPRPRPRPAHQPRP
shrunken log2 fold change: -0.0564

RRIRIRPPRLPRPRPRPAIMPRP
shrunken log2 fold change: -0.565

RRIRIRPPRLPRPRPRPAIWPRP
shrunken log2 fold change: 0.0492

RRIRIRPPRLPRPRPRPAKAPRP
shrunken log2 fold change: -0.00404

RRIRIRPPRLPRPRPRPAKQPRP
shrunken log2 fold change: 0.0314

RRIRIRPPRLPRPRPRPALNPRP
shrunken log2 fold change: -0.484

RRIRIRPPRLPRPRPRPALQPRP
shrunken log2 fold change: -0.011

RRIRIRPPRLPRPRPRPAQSPRP
shrunken log2 fold change: 0.227

RRIRIRPPRLPRPRPRPARHPRP
shrunken log2 fold change: 0.0869

RRIRIRPPRLPRPRPRPASVPRP
shrunken log2 fold change: -0.102

RRIRIRPPRLPRPRPRPATKPRP
shrunken log2 fold change: -0.195

RRIRIRPPRLPRPRPRPATWPRP
shrunken log2 fold change: -0.273

RRIRIRPPRLPRPRPRPAVAPRP
shrunken log2 fold change: 0.0259

RRIRIRPPRLPRPRPRPAYMPRP
shrunken log2 fold change: -0.688

RRIRIRPPRLPRPRPRPCAAPRP
shrunken log2 fold change: -0.0041

RRIRIRPPRLPRPRPRPCATPRP
shrunken log2 fold change: -0.122

RRIRIRPPRLPRPRPRPCFFPRP
shrunken log2 fold change: -0.503

RRIRIRPPRLPRPRPRPCHVPRP
shrunken log2 fold change: -0.401

RRIRIRPPRLPRPRPRPCIGPRP
shrunken log2 fold change: -0.632

RRIRIRPPRLPRPRPRPCIPPRP
shrunken log2 fold change: -0.307

RRIRIRPPRLPRPRPRPCKMPRP
shrunken log2 fold change: -0.0175

RRIRIRPPRLPRPRPRPCKRPRP
shrunken log2 fold change: 0.0279

RRIRIRPPRLPRPRPRPCKYPRP
shrunken log2 fold change: -1.03

RRIRIRPPRLPRPRPRPCLKPRP
shrunken log2 fold change: -0.16

RRIRIRPPRLPRPRPRPCMKPRP
shrunken log2 fold change: -1.01

RRIRIRPPRLPRPRPRPCMYPRP
shrunken log2 fold change: -0.573

RRIRIRPPRLPRPRPRPCPKPRP
shrunken log2 fold change: -0.564

RRIRIRPPRLPRPRPRPCRLPRP
shrunken log2 fold change: -0.468

RRIRIRPPRLPRPRPRPCRVPRP
shrunken log2 fold change: -1.39

RRIRIRPPRLPRPRPRPCVLPRP
shrunken log2 fold change: -0.145

RRIRIRPPRLPRPRPRPCVYPRP
shrunken log2 fold change: -0.227

— the supplement of paper PMC9112550, “Optimization of the antimicrobial peptide Bac7 by deep mutational scanning” (BMC Biology, 2022)
